For assay [1], the target named is recombinant wild-type cardiac troponin C (chicken) (UniProt P09860). Description: native gel or EMSA.
The target in assay [2] is recombinant wild-type cardiac troponin T (rat) (UniProt P50753). The experiment in a line: native gel or EMSA. On the technique in general: A gel shift assay detects complexes by their altered migration in electrophoresis.

The stoichiometry N is the number of molecules, sites or subunits per partner or assembly.

For “cTnI(131C), cardiac troponin I single-cysteine mutant C81I/C98S/Q131C labeled with AEDANS (from UniProt P48787 1-211) (natural protein)”, the stoichiometry N in assay [1] and in assay [2] was 1 each time.
For the substance “cTnI(151C), cardiac troponin I single-cysteine mutant C81I/C98S/S151C labeled with AEDANS (from UniProt P48787 1-211) (natural protein)”, the stoichiometry N in assay [1] and in assay [2] was 1 throughout.
Take “cTnI(160C), cardiac troponin I single-cysteine mutant C81I/C98S/L160C labeled with AEDANS (from UniProt P48787 1-211) (natural protein)”: the stoichiometry N in assay [1] and in assay [2] was 1 in each case.
“cTnI(167C), cardiac troponin I single-cysteine mutant C81I/C98S/S167C labeled with AEDANS (from UniProt P48787 1-211) (natural protein)”: the stoichiometry N in assay [1] and in assay [2] was 1 each time.
“cTnI(188C), cardiac troponin I single-cysteine mutant C81I/C98S/E188C labeled with AEDANS (from UniProt P48787 1-211) (natural protein)”: the stoichiometry N in assay [1] and in assay [2] was 1 each time.
In the case of “cTnI(210C), cardiac troponin I single-cysteine mutant C81I/C98S/E210C labeled with AEDANS (from UniProt P48787 1-211) (natural protein)”, the stoichiometry N in assay [1] and in assay [2] was 1 in each case.

The record behind these values is article PMC2599808.
